# Data from patent publication US20220153847A1 (Chugai, published 2022).
# Numbering of substitutions follows the chain as printed.
# T1: HLA-DQ5.1 on Ba/F3 cells (human, limits assumed)
# T1 construct: whole, on cells; also called Ba/F3-HLA-DQ5.1
# T1 MHC II alpha: not shown
# T1 MHC II beta: not shown
# T2: HLA-DR on Ba/F3 cells (human, UniProt P01903 26-216; P79483 30-227, limits assumed)
# T2 construct: whole, on cells; also called Ba/F3-HLA-DR
# T2 MHC II alpha: not shown
# T2 MHC II beta: not shown
# T3: HLA-DQ6.3 on Ba/F3 cells (human, UniProt P01920 33-230, limits assumed)
# T3 construct: whole, on cells; also called Ba/F3-HLA-DQ6.3
# T3 MHC II alpha: not shown
# T3 MHC II beta: not shown
# T4: HLA-DQ7.3 on Ba/F3 cells (human, UniProt P01909 24-216; P01920 33-230, limits assumed)
# T4 construct: whole, on cells; also called Ba/F3-HLA-DQ7.3
# T4 MHC II alpha: not shown
# T4 MHC II beta: not shown
# T5: HLA-DQ8 on Ba/F3 cells (human, UniProt P01909 24-216; P01920 33-230, limits assumed)
# T5 construct: whole, on cells; also called Ba/F3-HLA-DQ8
# T5 MHC II alpha: not shown
# T5 MHC II beta: not shown
# T6: HLA-DQ2.2 on Ba/F3 cells (human, UniProt P01909 24-216, limits assumed)
# T6 construct: whole, on cells; also called Ba/F3-HLA-DQ2.2
# T6 MHC II alpha: not shown
# T6 MHC II beta: not shown
# B1: DQN0344xx//DQN0385ee (bispecific antibody, human IgG1, kappa)
# heavy 1: QSLEESGGGLVKPGGTLTLTCTASGFSFSSSYWMCWVRQAPGKGLEWVACVYGGSDTTYYASWTKGRFTISKGSSTTVALQVTSLTAADTATYFCARDPLNYYYYGELNLWGPGTLVTVSSASTKGPSVFPLAPSSKSTSGGTAALGCLVKDYFPEPVTVSWNSGALTSGVHTFPAVLQSSGLYSLSSVVTVPSSSLGTQTYICNVNHKPSNTKVDKRVEPKSCDKTHTCPPCPAPELRRGPSVFLFPPKPKDTLMISRTPEVTCVVVDVSHEDPEVKFNWYVDGVEVHNAKTKPREEQYNSTYRVVSVLTVLHQDWLNGKEYKCKVSNKALPAPIEKTISKAKGQPREPQVYTLPPSREEMTKNQVSLTCLVKGFYPSDIAVEWESNGQPENNYKTTPPYLDSDGSFFLYSKLTVDKSRWQQGNVFSCSVMHEALHNHYTQESLSLSP
# light 1: AVVLTQTASPVSAAVGGTVTIRCQATENIYSGLAWYQQKPGQPPKVLIYYVSTLASGVPSRFKGSGSGTEYTLTISGVQCDDAATYYCQTYHDISNVTFGGGTKVEIKRTVAAPSVFIFPPSDEQLKSGTASVVCLLNNFYPREAKVQWKVDNALQSGNSQESVTEQDSKDCTYSLSSTLTLSKADYEKHKVYACEVTHQGLSSPVTKSFNRGEC
# heavy 2: QEQLEESGGDLVKPGASLTLTCTASGFSFYSSYWICWVRQAPGKGLEWIACIDTGSGSIDYASWVNGRFTISKTSSTTVTLQMTSLTVADTATYFCARDIGIDYNFWGPGTLVTVSSASTKGPSVFPLAPSSKSTSGGTAALGCLVKDYFPEPVTVSWNSGALTSGVHTFPAVLQSSGLYSLSSVVTVPSSSLGTQTYICNVNHKPSNTKVDKRVEPKSCDKTHTCPPCPAPELRRGPSVFLFPPKPKDTLMISRTPEVTCVVVDVSHEDPEVKFNWYVDGVEVHNAKTKPREEQYNSTYRVVSVLTVLHQDWLNGKEYKCKVSNKALPAPIEKTISKAKGQPREPQVYTLPPSRKEMTKNQVSLTCLVKGFYPSDIAVEWESNGQPENNYKTTPPYLDSDGSFFLYSKLTVDKSRWQQGNVFSCSVMHEALHNHYTQKSLSLSP
# light 2: AFELTQTPSFVEAAVGGTVTIKCQATQSISSYLNWYQQKPGQPPKLLIYYASTLASGVPSRFKGSGSGTEFSLTISGVECADAATYYCHYGISYVSFGGGTKVEIKRTVAAPSVFIFPPSDEQLKSGTASVVCLLNNFYPREAKVQWKVDNALQSGNSQESVTEQDSKDCTYSLSSTLTLSKADYEKHKVYACEVTHQGLSSPVTKSFNRGEC
# B2: DQN0385ee//IC17 (bispecific antibody, human IgG1, kappa)
# heavy 1: B1 heavy 2 with K356E, K439E
# light 1: B1 light 2
# heavy 2: QVQLQQSGPQLVRPGASVKISCKASGYSFTSYWMHWVNQRPGQGLEWIGMIDPSYSETRLNQKFKDKATLTVDKSSSTAYMQLSSPTSEDSAVYYCALYGNYFDYWGQGTTLTVSSASTKGPSVFPLAPSSKSTSGGTAALGCLVKDYFPEPVTVSWNSGALTSGVHTFPAVLQSSGLYSLSSVVTVPSSSLGTQTYICNVNHKPSNTKVDKRVEPKSCDKTHTCPPCPAPELRRGPSVFLFPPKPKDTLMISRTPEVTCVVVDVSHEDPEVKFNWYVDGVEVHNAKTKPREEQYNSTYRVVSVLTVLHQDWLNGKEYKCKVSNKALPAPIEKTISKAKGQPREPQVYTLPPSRKEMTKNQVSLTCLVKGFYPSDIAVEWESNGQPENNYKTTPPYLDSDGSFFLYSKLTVDKSRWQQGNVFSCSVMHEALHNHYTQKSLSLSP
# light 2: DIQMTQSSSSFSVSLGDRVTITCKASEDIYNRLAWYQQKPGNAPRLLISGATSLETGVPSRFSGSGSGKDYTLSITSLQTEDVATYYCQQYWSTPYTFGGGTKLEVKRTVAAPSVFIFPPSDEQLKSGTASVVCLLNNFYPREAKVQWKVDNALQSGNSQESVTEQDSKDSTYSLSSTLTLSKADYEKHKVYACEVTHQGLSSPVTKSFNRGEC
# Columns and labels:
# HLA-DQ5.1 on Ba/F3 cells = target: T1, HLA-DQ5.1 on Ba/F3 cells; test: FACS on Ba/F3-HLA-DQ5.1 cells, single antibody concentration, goat F(ab')2 anti-human IgG-PE
# HLA-DP on Ba/F3 cells = target: T7, HLA-DP on Ba/F3 cells (human, UniProt P20036 29-222; P04440 30-225, limits assumed); test: FACS on Ba/F3-HLA-DP cells, single antibody concentration, goat F(ab')2 anti-human IgG-PE
# T7 construct: whole, on cells; also called Ba/F3-HLA-DP
# T7 sequence (P20036 29-222 limits assumed, chain 1 of 4, other chains not shown): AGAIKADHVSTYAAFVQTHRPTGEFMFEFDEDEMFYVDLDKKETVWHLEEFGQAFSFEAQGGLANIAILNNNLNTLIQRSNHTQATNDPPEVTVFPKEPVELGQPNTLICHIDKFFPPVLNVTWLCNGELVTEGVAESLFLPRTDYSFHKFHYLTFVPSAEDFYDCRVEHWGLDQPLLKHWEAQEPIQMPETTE
# T7 sequence (P04440 30-225 limits assumed, chain 2 of 4, other chains not shown): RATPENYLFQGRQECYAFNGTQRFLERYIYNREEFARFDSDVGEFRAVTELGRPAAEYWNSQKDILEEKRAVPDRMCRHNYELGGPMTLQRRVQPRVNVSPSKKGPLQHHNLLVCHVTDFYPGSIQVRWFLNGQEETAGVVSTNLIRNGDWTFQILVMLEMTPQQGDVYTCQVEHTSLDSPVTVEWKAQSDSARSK
# [1] = target: T8, HLA-DQ2.5/33mer gliadin peptide complex on Ba/F3 cells (human); test: FACS, Ba/F3 cells; IC17=0%, DQN0139bb//IC17=100%;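 also: flow cytometry binding of anti-HLA-DQ antibodies at 5 µg/mL, incubated 30 min at room temperature with Ba/F3 lines presenting HLA-DQ/peptide complexes; antibody tested at 5 microgram/mL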
# T8 construct: whole, on cells; also called Ba/F3-HLA-DQ2.5/33mer gliadin
# Text: (§1) The binding of anti-HLA-DQ antibodies to Ba/F3-HLA-DQ2.5, Ba/F3-HLA-DQ2.2, Ba/F3-HLA-DQ7.5, Ba/F3-HLA-DQ8, Ba/F3-HLA-DQ5.1, Ba/F3-HLA-DQ6.3, Ba/F3-HLA-DQ7.3, Ba/F3-HLA-DR, Ba/F3-HLA-DP, Ba/F3-HLA-DQ2.5/CLIP, Ba/F3-HLA-DQ2.5/HBV, Ba/F3-HLA-DQ2.5/Salmonella, Ba/F3-HLA-DQ2.5/TPO, Ba/F3-HLA-DQ2.5/M. bovis, Ba/F3-HLA-DQ2.5/alpha 1 gliadin, Ba/F3-HLA-DQ2.5/alpha 2 gliadin, Ba/F3-HLA-DQ2.5/gamma 1 gliadin, Ba/F3-HLA-DQ2.5/gamma 2 gliadin, Ba/F3-HLA-DQ2.5/omega 1 gliadin, Ba/F3-HLA-DQ2.5/omega 2 gliadin, Ba/F3-HLA-DQ2.5/BC hordein, Ba/F3-HLA-DQ2.5/alpha 3 gliadin, Ba/F3-HLA-DQ2.5/alpha 1b gliadin, Ba/F3-HLA-DQ2.5/gamma 4b gliadin, Ba/F3-HLA-DQ2.5/avenin 1, Ba/F3-HLA-DQ2.5/avenin 2, Ba/F3-HLA-DQ2.5/avenin 3, Ba/F3-HLA-DQ2.5/hordein 1, Ba/F3-HLA-DQ2.5/hordein 2, Ba/F3-HLA-DQ2.5/secalin 1, Ba/F3-HLA-DQ2.5/secalin 2, Ba/F3-HLA-DQ2.5/14mer 1, Ba/F3-HLA-DQ2.5/33mer gliadin, Ba/F3-HLA-DQ2.5/26mer gliadin, was tested. 5 microgram/mL of each of the anti-HLA-DQ antibodies was incubated with each cell line for 30 minutes at room temperature and washed with FACS buffer (2% FBS, 2 mM EDTA in PBS).
# [2] = target: DQ2.5/gamma 1 gliadin peptide on IHW9023 cells (human); test: cell-based or functional assay
# [3] = target: DQ2.5/gamma 4a gliadin peptide on IHW9023 cells (human); test: cell-based or functional assay
# [4] = target: DQ2.5/alpha 1 gliadin peptide on IHW9023 cells (human); test: cell-based or functional assay
# [5] = target: DQ2.5/alpha 2 gliadin peptide on IHW9023 cells (human); test: cell-based or functional assay
# [6] = target: DQ2.5/alpha 1b gliadin peptide on IHW9023 cells (human); test: cell-based or functional assay
# [7] = target: DQ2.5/omega 1 gliadin peptide on IHW9023 cells (human); test: cell-based or functional assay
# [8] = target: DQ2.5/omega 2 gliadin peptide on IHW9023 cells (human); test: cell-based or functional assay
# [9] = target: DQ2.5/BC hordein peptide on IHW9023 cells (human); test: cell-based or functional assay
# HLA-DR on Ba/F3 cells = target: T2, HLA-DR on Ba/F3 cells; test: FACS on Ba/F3-HLA-DR cells, single antibody concentration, goat F(ab')2 anti-human IgG-PE
# HLA-DQ6.3 on Ba/F3 cells = target: T3, HLA-DQ6.3 on Ba/F3 cells; test: FACS on Ba/F3-HLA-DQ6.3 cells, single antibody concentration, goat F(ab')2 anti-human IgG-PE
# HLA-DQ7.3 on Ba/F3 cells = target: T4, HLA-DQ7.3 on Ba/F3 cells; test: FACS, Ba/F3 cells; IC17=0%, DQN0139bb//IC17=100%;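 also: flow cytometry binding of anti-HLA-DQ antibodies at 5 µg/mL, incubated 30 min at room temperature with Ba/F3 lines presenting HLA-DQ/peptide complexes; antibody tested at 5 microgram/mL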
# Text: as §1
# HLA-DQ7.5 on Ba/F3 cells = target: T9, HLA-DQ7.5 on Ba/F3 cells (human, UniProt P01909 24-216; P01920 33-230, limits assumed); test: FACS, Ba/F3 cells; IC17=0%, DQN0139bb//IC17=100%;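 also: flow cytometry binding of anti-HLA-DQ antibodies at 5 µg/mL, incubated 30 min at room temperature with Ba/F3 lines presenting HLA-DQ/peptide complexes; antibody tested at 5 microgram/mL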
# T9 construct: whole, on cells; also called Ba/F3-HLA-DQ7.5
# Text: as §1
# HLA-DQ2.5 on Ba/F3 cells = target: T10, HLA-DQ2.5 on Ba/F3 cells (human, UniProt P01909 24-216, limits assumed); test: FACS, Ba/F3 cells; IC17=0%, DQN0139bb//IC17=100%;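 also: flow cytometry binding of anti-HLA-DQ antibodies at 5 µg/mL, incubated 30 min at room temperature with Ba/F3 lines presenting HLA-DQ/peptide complexes; antibody tested at 5 microgram/mL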
# T10 construct: whole, on cells; also called Ba/F3-HLA-DQ2.5
# Text: as §1
# HLA-DQ8 on Ba/F3 cells = target: T5, HLA-DQ8 on Ba/F3 cells; test: FACS, Ba/F3 cells; IC17=0%, DQN0139bb//IC17=100%
# Text: as §1
# HLA-DQ2.2 on Ba/F3 cells = target: T6, HLA-DQ2.2 on Ba/F3 cells; test: FACS, Ba/F3 cells; IC17=0%, DQN0139bb//IC17=100%
# Text: as §1
# [10] = target: HLA-DQ2.5/33mer gliadin peptide on IHW9088 cells (human); test: cell-based or functional assay
Binder,binding result (HLA-DQ5.1 on Ba/F3 cells),binding result (HLA-DP on Ba/F3 cells),% MFI [1] [%],"IC50, Jurkat NFAT-Luc T cell activation [2] [µg/mL]","IC50, Jurkat NFAT-Luc T cell activation [3] [µg/mL]","IC50, Jurkat NFAT-Luc T cell activation [4] [µg/mL]","IC50, Jurkat NFAT-Luc T cell activation [5] [µg/mL]","IC50, Jurkat NFAT-Luc T cell activation [6] [µg/mL]","IC50, Jurkat NFAT-Luc T cell activation [7] [µg/mL]","IC50, Jurkat NFAT-Luc T cell activation [8] [µg/mL]","IC50, Jurkat NFAT-Luc T cell activation [9] [µg/mL]",binding result (HLA-DR on Ba/F3 cells),binding result (HLA-DQ6.3 on Ba/F3 cells),% MFI (HLA-DQ7.3 on Ba/F3 cells) [%],% MFI (HLA-DQ7.5 on Ba/F3 cells) [%],% MFI (HLA-DQ2.5 on Ba/F3 cells) [%],% MFI (HLA-DQ8 on Ba/F3 cells) [%],% MFI (HLA-DQ2.2 on Ba/F3 cells) [%],IC50 (read off the curve) [10] [microgram/mL]
B1,no binding (tested: 5 microgram/mL),no binding (tested: 5 microgram/mL),91.3,0.0469,0.892,0.019,0.000606,0.0594,0.0177,0.00323,0.0331,no binding (tested: 5 microgram/mL),no binding (tested: 5 microgram/mL),–,–,–,–,–,–
B2,–,–,–,–,–,–,–,–,–,–,–,–,–,0.1,0.1,0.1,0.1,0.3,~0.06
